B1: LovD (Aspergillus terreus) (protein)
chain: MGSIIDAAAAADPVVLMETAFRKAVKSRQIPGAVIMARDCSGNLNYTRCFGARTVRRDECNQLPPLQVDTPCRLASATKLLTTIMALQCMERGLVDLDETVDRLLPDLSAMPVLEGFDDAGNARLRERRGKITLRHLLTHTSGLSYVFLHPLLREYMAQGHLQSAEKFGIQSRLAPPAVNDPGAEWIYGANLDWAGKLVERATGLDLEQYLQENICAPLGITDMTFKLQQRPDMLARRADQTHRNSADGRLRYDDSVYFRADGEECFGGQGVFSGPGSYMKVLHSLLKRDGLLLQPQTVDLMFQPALEPRLEEQMNQHMDASPHINYGGPMPMVLRRSFGLGGIIALEDLDGENWRRKGSLTFGGGPNIVWQIDPKAGLCTLAFFQLEPWNDPVCRDLTRTFEHAIYAQYQQG

What was measured:
[1] = target: LovF (Aspergillus terreus, UniProt Q9Y7D5); assay: FTMS of ACP-bound diketide; assay type: biochemical; settings: with SAM and NADPH; covalent loading on ACP
Chain of LovF (Q9Y7D5 whole entry): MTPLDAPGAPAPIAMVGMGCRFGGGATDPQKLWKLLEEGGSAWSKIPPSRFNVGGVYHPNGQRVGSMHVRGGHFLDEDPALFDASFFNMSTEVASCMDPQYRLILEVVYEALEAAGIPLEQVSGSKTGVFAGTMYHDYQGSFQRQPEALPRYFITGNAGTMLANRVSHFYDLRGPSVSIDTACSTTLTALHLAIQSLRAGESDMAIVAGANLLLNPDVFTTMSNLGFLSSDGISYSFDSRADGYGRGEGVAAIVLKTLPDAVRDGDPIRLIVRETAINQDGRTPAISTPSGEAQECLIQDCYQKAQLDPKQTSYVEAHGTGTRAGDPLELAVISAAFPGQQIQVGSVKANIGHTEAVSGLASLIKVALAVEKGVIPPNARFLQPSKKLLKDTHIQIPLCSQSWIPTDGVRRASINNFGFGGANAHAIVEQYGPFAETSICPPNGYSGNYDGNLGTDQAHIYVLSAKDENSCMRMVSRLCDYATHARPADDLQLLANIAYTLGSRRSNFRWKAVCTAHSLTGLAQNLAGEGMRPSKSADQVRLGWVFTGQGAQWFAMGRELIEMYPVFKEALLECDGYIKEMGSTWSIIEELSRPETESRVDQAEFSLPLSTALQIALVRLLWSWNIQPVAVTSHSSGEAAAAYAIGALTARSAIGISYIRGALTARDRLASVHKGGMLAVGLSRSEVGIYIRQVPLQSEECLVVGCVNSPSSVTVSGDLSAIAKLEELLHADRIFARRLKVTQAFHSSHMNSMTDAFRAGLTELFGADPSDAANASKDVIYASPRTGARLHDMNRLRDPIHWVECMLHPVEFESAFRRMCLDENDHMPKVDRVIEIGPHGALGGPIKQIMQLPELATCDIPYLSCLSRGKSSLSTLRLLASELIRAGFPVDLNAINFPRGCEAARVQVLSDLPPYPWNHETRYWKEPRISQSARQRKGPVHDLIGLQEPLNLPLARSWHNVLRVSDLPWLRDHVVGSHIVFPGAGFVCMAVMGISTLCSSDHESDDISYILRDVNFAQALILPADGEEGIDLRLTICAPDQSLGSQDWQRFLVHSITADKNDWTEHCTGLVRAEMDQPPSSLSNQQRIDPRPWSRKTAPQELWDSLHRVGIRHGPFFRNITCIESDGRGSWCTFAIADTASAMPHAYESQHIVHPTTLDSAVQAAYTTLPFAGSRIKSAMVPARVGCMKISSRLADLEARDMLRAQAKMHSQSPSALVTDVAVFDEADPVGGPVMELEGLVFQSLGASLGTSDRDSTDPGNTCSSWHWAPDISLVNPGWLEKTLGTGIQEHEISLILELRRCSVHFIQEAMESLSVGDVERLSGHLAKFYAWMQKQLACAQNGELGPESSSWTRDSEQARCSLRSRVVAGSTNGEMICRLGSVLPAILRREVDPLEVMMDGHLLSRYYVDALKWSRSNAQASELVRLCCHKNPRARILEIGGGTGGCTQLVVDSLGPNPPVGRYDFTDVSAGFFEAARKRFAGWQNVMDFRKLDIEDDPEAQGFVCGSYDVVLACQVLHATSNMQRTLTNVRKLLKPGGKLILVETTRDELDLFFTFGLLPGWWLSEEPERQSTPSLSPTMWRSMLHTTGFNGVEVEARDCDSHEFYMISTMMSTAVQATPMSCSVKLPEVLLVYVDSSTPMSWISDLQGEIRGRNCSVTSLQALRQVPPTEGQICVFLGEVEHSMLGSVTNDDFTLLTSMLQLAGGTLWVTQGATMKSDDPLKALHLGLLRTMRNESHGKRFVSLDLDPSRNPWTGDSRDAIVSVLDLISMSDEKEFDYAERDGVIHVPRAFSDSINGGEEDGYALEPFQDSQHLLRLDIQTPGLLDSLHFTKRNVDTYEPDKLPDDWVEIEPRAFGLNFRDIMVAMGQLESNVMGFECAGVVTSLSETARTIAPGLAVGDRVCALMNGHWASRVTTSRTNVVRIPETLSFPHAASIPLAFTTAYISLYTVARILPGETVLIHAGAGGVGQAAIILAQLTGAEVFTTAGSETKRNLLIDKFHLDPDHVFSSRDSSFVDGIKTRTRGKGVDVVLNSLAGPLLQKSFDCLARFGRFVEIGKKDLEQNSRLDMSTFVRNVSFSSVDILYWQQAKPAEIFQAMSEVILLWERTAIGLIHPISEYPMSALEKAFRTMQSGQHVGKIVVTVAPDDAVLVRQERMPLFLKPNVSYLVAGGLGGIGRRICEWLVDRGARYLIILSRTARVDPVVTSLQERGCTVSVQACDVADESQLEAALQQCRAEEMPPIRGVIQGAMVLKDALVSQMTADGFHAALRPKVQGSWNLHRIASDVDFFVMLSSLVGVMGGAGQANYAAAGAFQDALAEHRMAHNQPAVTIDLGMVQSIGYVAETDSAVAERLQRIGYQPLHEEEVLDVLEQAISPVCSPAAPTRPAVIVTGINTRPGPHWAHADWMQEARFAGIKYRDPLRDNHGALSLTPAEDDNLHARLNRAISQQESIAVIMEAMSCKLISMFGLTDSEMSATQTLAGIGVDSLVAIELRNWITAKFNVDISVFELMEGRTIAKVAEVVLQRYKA

[2] = substrate: CC[C@H](C)C(=O)SCCNC(C)=O; assay: initial velocity of lovastatin formation by HPLC; assay type: biochemical, Aspergillus terreus; settings: acyl donor; acyl acceptor monacolin J
[3] = substrate: CC[C@H](C)C(=O)SCCNC(=O)CCNC(=O)[C@H](O)C(C)(C)COP(=O)(O)OP(=O)(O)OC[C@H]1O[C@@H](n2cnc3c(N)ncnc32)[C@H](O)[C@@H]1OP(=O)(O)O; assay: initial velocity of lovastatin formation by HPLC; assay type: biochemical, Aspergillus terreus; settings: acyl donor; acyl acceptor monacolin J

Molecule | FTMS of ACP-bound diketide; LC-MS of product released by LovD [1] | Km [2] [mM] | kcat [2] [s⁻¹] | kcat/Km [2] [M⁻¹ s⁻¹] | Km [3] [mM] | kcat [3] [s⁻¹] | kcat/Km [3] [M⁻¹ s⁻¹]
CC(C)(COP(=O)(O)OP(=O)(O)OC[C@H]1O[C@@H](n2cnc3c(N)ncnc32)[C@H](O)[C@@H]1OP(=O)(O)O)[C@@H](O)C(=O)NCCC(=O)NCCSC(=O)CC(=O)O [malonyl-CoA] | we incubated LovF with malonyl-CoA, SAM and NADPH |  |  |  |  |  | 
B1 |  | 9.2 ± 0.9 | 0.0004 ± 1.67e-05 | 0.0267 | 2.5 ± 0.31 | 0.00283 ± 0.000167 | 1.15
